Biological target: the molecule itself
Experiment: cryoEM 2D class averages; PilT^Pa 0.75 mg/ml without added nucleotide, 4 °C; top-view 2D class averages compared with projections of PilT crystal structures

Protein | stoichiometry N
PilT from Pseudomonas aeruginosa (PilT^Pa), purified (enzyme, PilT, Pseudomonas aeruginosa, expressed from pET28a:PilT^Pa; the cloning of this plasmid is not described; also called apo-PilT^Pa; wild-type PilT^Pa; source: E. coli BL21-CodonPlus, purified (Ni-NTA, Superdex 200 SEC)) MDITELLAFSAKQGASDLHLSAGLPPMIRVDGDVRRINLPPLEHKQVHALIYDIMNDKQRKDFEEFLETDFSFEVPGVARFRVNAFNQNRGAGAVFRTIPSKVLTMEELGMGEVFKRVSDVPRGLVLVTGPTGSGKSTTLAAMLDYLNNTKYHHILTIEDPIEFVHESKKCLVNQREVHRDTLGFSEALRSALREDPDIILVGEMRDLETIRLALTAAETGHLVFGTLHTTSAAKTIDRVVDVFPAEEKAMVRSMLSESLQSVISQTLIKKIGGGRVAAHEIMIGTPAIRNLIREDKVAQMYSAIQTGGSLGMQTLDMCLKGLVAKGLISRENAREKAKIPENF | 6
K58A PilT from Pseudomonas aeruginosa, purified (enzyme, PilT, Pseudomonas aeruginosa, with K58A; the expression construct of the purified mutant is not described; also called K58A PilT^Pa; K58A mutant; source: purified) MDITELLAFSAKQGASDLHLSAGLPPMIRVDGDVRRINLPPLEHKQVHALIYDIMNDAQRKDFEEFLETDFSFEVPGVARFRVNAFNQNRGAGAVFRTIPSKVLTMEELGMGEVFKRVSDVPRGLVLVTGPTGSGKSTTLAAMLDYLNNTKYHHILTIEDPIEFVHESKKCLVNQREVHRDTLGFSEALRSALREDPDIILVGEMRDLETIRLALTAAETGHLVFGTLHTTSAAKTIDRVVDVFPAEEKAMVRSMLSESLQSVISQTLIKKIGGGRVAAHEIMIGTPAIRNLIREDKVAQMYSAIQTGGSLGMQTLDMCLKGLVAKGLISRENAREKAKIPENF | 6

— PMC6858323, “Multiple conformations facilitate PilT function in the type IV pilus” (Nature Communications, 2019)
